Assay results published in the RNAGym collection of RNA variant scans (doi:10.7554/elife.80360).

B1: CPEB3 Ribozyme (parent)
chain: GGGGGCCACAGCAGAAGCGUUCACGUCGCGGCCCCUGUCAGAUUCUGGUGAAUCUGCGAAUUCUGCUGU

Variants of: B1
Experiment: self-cleavage, relative activity (ratio to wild type); higher = more cleavage; co-transcriptional

Variant	self-cleavage
G37C U67G	0.188
G37C U67A	0.274
U36G G56C	0.284
C35U A52C	1.01
G37C C54G	0.164
C35G C39G	0.343
C35G C39U	0.263
C35G U38C	0.286
G37U C54U	0.332
U36G G50A	0.214
U36G G50C	0.231
C35A A60U	0.181
U38A A40C	0.703
U38A A40G	0.808
G37U G48C	0.326
C35A U46C	0.275
C35U A60U	0.395
C35U A60C	0.368
C35U A60G	0.522
G37C U46G	0.25
G37C U46A	0.236
G37U G58A	0.17
G37U U44C	0.188
G37U U62C	0.299

Variant	self-cleavage
G37U U43G	0.298
C35U C66U	0.905
C35U C66G	0.813
U36A A59U	0.146
C34U U62C	0.896
U38A A51C	0.908
U38A A51G	0.89
U36C C45U	0.926
U36A U62C	0.314
G37C A60G	0.237
G37U U61A	0.263
U36A G50U	0.232
U36C	0.939
U36A	0.25
U36G	0.239
C35A U69G	0.356
G37A U44A	0.277
C35U C39U	0.85
G37C G56C	0.223
C35G C63G	0.361
C35G C63U	0.47
G37U A40U	0.257
U36G U69C	0.493
U36G U69G	0.45

Variant	self-cleavage
U36A G41A	0.146
U36C G65U	0.485
G37C A59U	0.242
U36G G68U	0.338
U36G G68C	0.436
U36G G68A	0.214
U36G U44C	0.118
U36C A51G	0.914
G37C U64A	0.267
G37C U64C	0.162
G37U A51G	0.266
G37U A51U	0.252
G37U A51C	0.234
C35G G68U	0.687
G37U C66U	0.245
C35G G50C	0.401
U36C G68U	1.01
U36G A60G	0.209
U36G A60C	0.206
U36A A52C	0.24
C35A G48C	0.281
C35A G48A	0.248
C35G C66G	0.437
G37U A52C	0.281

Variant	self-cleavage
U36A A51G	0.249
C35U U64G	0.874
C35U G50U	0.94
U36C C57U	0.277
U36C U43G	0.662
C35G U61G	0.296
C35G U61C	0.257
U36A A40U	0.191
U36G C45U	0.232
U36C U62C	0.528
U36G U55G	0.245
U36G U55C	0.177
C35A U38G	0.291
U36G U67G	0.252
U36G A40U	0.259
G37U A59C	0.218
G37U A59G	0.412
U36C A52G	0.855
C35U U53C	0.897
C35U U53G	0.636
C35A G41C	0.237
C35U C54U	0.929
C35U C54G	0.72
G37C U62C	0.276

Variant	self-cleavage
G37C U53G	0.129
G37C U53C	0.284
U36A A42G	0.355
U36G C57A	0.236
U36G C57U	0.184
G37C G48C	0.226
C35U U55A	0.82
C34U U53A	0.975
G37A U53G	0.222
G37A U53A	0.303
U36C U46G	0.93
U36G A42U	0.256
U36G A42C	0.221
G37C G41C	0.126
G37C G41A	0.245
C34U U55C	0.823
C35G U36G	0.189
C35G U36C	0.36
C35G U36A	0.21
C35A G50A	0.216
C35A G50C	0.252
G37A U62G	0.318
U36G U49G	0.197
U36G U49A	0.237

Variant	self-cleavage
G37A G48A	0.357
G37A G48C	0.265
C34U U61C	0.888
G37U G41U	0.201
U36A G37A	0.213
U36A G37U	0.259
U36A G37C	0.198
U36C C66U	0.891
C35G A42C	0.308
G37C A42G	0.213
G37C A42C	0.237
G37A A51C	0.334
G37A A51G	0.332
G37C G47C	0.18
U36A C63A	0.245
G37A A52C	0.282
C35U U43G	0.753
U36A C54A	0.2
U36A C54G	0.215
G37A C63G	0.258
U36A U61A	0.137
U36A U61G	0.147
U36A G65A	0.278
C35A C54G	0.199

Variant	self-cleavage
U36A G58A	0.205
G37A A59U	0.215
C35U A40C	0.46
C35U A40U	0.717
C35U C57G	0.302
C35U C57U	0.373
C35G G58A	0.243
C35U G37C	0.22
C35U G37U	0.258
C35G U67C	0.486
U36A U43C	0.186
G37A C66A	0.227
G37A C66G	0.265
G37A G56U	0.257
G37A G56A	0.249
G37A U55G	0.234
G37A G68C	0.371
U36C C63U	0.856
U36G G47U	0.148
G37U A60G	0.208
G37U A60U	0.195
G37U A60C	0.224
U36C G50U	0.893
U36C G50A	0.948

Variant	self-cleavage
G37A U64C	0.312
G37C A52U	0.254
U38A A60U	0.453
U36A U46C	0.186
U36A C45U	0.325
C35G G65C	0.374
C35G G65A	0.357
U36C U38A	0.376
U36C U38C	0.631
G37U G65C	0.228
C35A C39A	0.209
C35G U62C	0.242
U36A U64C	0.298
U38A C45A	0.875
U38A C45U	0.918
U38A A42G	0.755
U38A A42C	0.892
U38A C39G	0.994
U38A C39A	0.748
G37U G68U	0.375
G37C C45G	0.346
C35G G48C	0.531
C35U C45U	0.994
C35U C45A	0.985

Variant	self-cleavage
C34U U64A	0.974
G37U G47A	0.324
G37U U69A	0.358
G37U U69G	0.354
C35A C45G	0.179
C35A C45U	0.261
C35A C45A	0.22
C35U U67A	0.95
U36G G65U	0.0921
U36G U38A	0.214
U36A U49C	0.22
U36G C63A	0.147
G37U C57G	0.209
C35U U69A	0.967
C35A U36A	0.198
U36A G56A	0.231
C35U U44G	0.835
G37A U67G	0.334
G37A U67C	0.321
U36A U69G	0.347
C35U U49A	0.969
G37U U55A	0.187
U36G A51G	0.179
U36G A51U	0.117

Variant	self-cleavage
U36G A51C	0.25
G37U C39G	0.214
G37U C39A	0.273
U36G U46A	0.349
U36G U46G	0.181
G37C U49A	0.307
C35G U49A	0.444
C35G U49G	0.373
C35G U53A	0.407
U36G C54A	0.186
U36G C54G	0.137
U36C U61G	0.601
U36A C66G	0.257
C35G C54U	0.497
C35G C54A	0.305
U36G U53A	0.273
U36G U53G	0.214
C35A U44A	0.285
C35A U44G	0.282
G37C A51G	0.205
C35G U44G	0.373
U36A U53C	0.181
C35U U62C	0.752
C35A A51U	0.223

Variant	self-cleavage
C35U G68A	0.992
G37C G65C	0.255
C35A C63U	0.251
C35A C63G	0.22
G37A G41U	0.219
U36G U64A	0.254
U36C G37A	0.335
U36C C39U	0.732
U36C C39A	0.474
U38A A52C	0.898
C35G U64A	0.402
C35G G41C	0.295
C35G G41A	0.294
C35G A52G	0.458
U36A G68U	0.248
C35G U55G	0.238
C35G U55A	0.267
C35G U55C	0.33
U36C U69A	0.996
G37A A42G	0.189
G37A C54G	0.221
G37C U69A	0.336
G37C U69C	0.428
U36A C39G	0.15

Variant	self-cleavage
U36A C39U	0.237
G37A U49A	0.285
G37A U49C	0.303
C35G G47A	0.477
C35U G65C	0.568
U36G U61G	0.179
U36G U61C	0.139
G37C U44G	0.211
G37C U44A	0.27
G37U G50C	0.315
G37U G50A	0.284
G37A U69A	0.422
G37A U69G	0.538
C35U G41A	0.635
U36G U62A	0.131
U36G U62G	0.238
C35A G58C	0.25
C35A G58A	0.196
G37A C45A	0.23
C35A U61C	0.27
C35A	0.281
C35U	0.973
C35G	0.478
C35G C57U	0.287

Variant	self-cleavage
U38A	0.929
C35G U46A	0.618
C35G U46G	0.335
G37U U64G	0.227
U36C U64A	0.713
U36G G58U	0.193
G37A U61C	0.149
G37A U61G	0.221
U36C U67C	0.981
U36C U67A	0.926
U36C G58A	0.731
U36C G58C	0.834
C35A A52U	0.274
G37A G58A	0.289
G37A G58U	0.247
G37C U43G	0.202
G37U C45A	0.295
G37A G50A	0.304
C35A U67A	0.239
C35A U67G	0.288
C35A G68A	0.358
G37C U38G	0.25
C34U U67A	1.01
C34U U67C	1.01

Variant	self-cleavage
G37A A60U	0.193
G37A A60C	0.274
G37U U53A	0.195
C35U U61C	0.625
C35A C57G	0.192
C35A C57A	0.218
U36A U44G	0.21
U36A U44A	0.177
C35A G65C	0.191
G37A C39G	0.277
U36C U55C	0.74
U36C U55A	0.888
U36C U55G	0.454
C35G A59C	0.307
C35G A59G	0.488
C34U U43A	0.967
C34U U43C	0.892
C35A A40G	0.212
C35A A40C	0.288
C35A A40U	0.231
U36G G48U	0.196
U36A G48A	0.269
